The test system of this data set is Cc1[nH]c2ccccc2c1CCN. The data set can be described thus: steady-state kinetics of halogenation. In kind it is biochemical, Lentzea aerocolonigenes. The following applies: 21 °C.

Consider “RebH (Lentzea aerocolonigenes; E423D/E461G/K145M/M71V/N166S/Q494R/S130L/S2P)”, for which, for the setting “variant 3-LSR”, the Km (commonly the concentration of substrate that gives half-maximal velocity) was 40.2 ± 3.7 µM; the kcat (commonly the number of substrate molecules converted per active site and unit of time at saturation) was found to be 0.013 ± 0.00036 s⁻¹; the kcat/Km (as a rule, the second-order rate constant that governs catalysis at low substrate concentration) came out at 330 M⁻¹ s⁻¹.

In the case of RebH (Lentzea aerocolonigenes), the Km stood at 16.8 ± 3.8 µM, the kcat came to 0.06 ± 0.0057 s⁻¹ and the kcat/Km was found to be 3600 M⁻¹ s⁻¹.

For the origin of these results see PMC4124618.
